Here are results for three molecules from patent publication US20060094663A1.

Where no end group is shown, it is not given here. [ ]: non-standard residue; d: D form. I2aa = indolizidin-2-one amino acid (2-oxo-3-amino-azabicyclo[4.3.0]nonane-9-carboxylic acid), a dipeptide surrogate; dOrn = NCCC[C@@H](N)C(=O)O

The target in test [1] is IL-1R/IL-1RacP receptor on porcine cells and vessels (porcine (piglet)). The test can be described thus: cell-based or functional assay.
The target of test [2] is IL-1R/IL-1RacP receptor (cells or tissue whose species is not stated). The test can be described thus: cell-based or functional assay.
Chain of IL-1R/IL-1RacP receptor (cells or tissue whose species is not stated) (P14778 whole entry, chain 1 of 2): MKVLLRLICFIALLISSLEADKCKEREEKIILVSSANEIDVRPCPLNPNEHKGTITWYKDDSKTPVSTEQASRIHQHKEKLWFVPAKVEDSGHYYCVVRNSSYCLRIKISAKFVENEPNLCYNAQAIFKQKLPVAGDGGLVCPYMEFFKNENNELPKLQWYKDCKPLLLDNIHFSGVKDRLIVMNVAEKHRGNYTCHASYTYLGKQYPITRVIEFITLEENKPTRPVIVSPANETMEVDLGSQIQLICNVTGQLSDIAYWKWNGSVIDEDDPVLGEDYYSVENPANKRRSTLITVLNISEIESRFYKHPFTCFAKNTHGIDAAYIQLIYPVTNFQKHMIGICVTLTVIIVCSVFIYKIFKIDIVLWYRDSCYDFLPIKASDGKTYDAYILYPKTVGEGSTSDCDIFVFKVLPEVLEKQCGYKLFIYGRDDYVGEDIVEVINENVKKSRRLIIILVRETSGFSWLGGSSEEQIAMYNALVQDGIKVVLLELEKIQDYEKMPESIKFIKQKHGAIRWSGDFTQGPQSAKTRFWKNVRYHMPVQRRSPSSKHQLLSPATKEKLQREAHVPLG
Chain of IL-1R/IL-1RacP receptor (cells or tissue whose species is not stated) (Q9NPH3 whole entry, chain 2 of 2, further chain): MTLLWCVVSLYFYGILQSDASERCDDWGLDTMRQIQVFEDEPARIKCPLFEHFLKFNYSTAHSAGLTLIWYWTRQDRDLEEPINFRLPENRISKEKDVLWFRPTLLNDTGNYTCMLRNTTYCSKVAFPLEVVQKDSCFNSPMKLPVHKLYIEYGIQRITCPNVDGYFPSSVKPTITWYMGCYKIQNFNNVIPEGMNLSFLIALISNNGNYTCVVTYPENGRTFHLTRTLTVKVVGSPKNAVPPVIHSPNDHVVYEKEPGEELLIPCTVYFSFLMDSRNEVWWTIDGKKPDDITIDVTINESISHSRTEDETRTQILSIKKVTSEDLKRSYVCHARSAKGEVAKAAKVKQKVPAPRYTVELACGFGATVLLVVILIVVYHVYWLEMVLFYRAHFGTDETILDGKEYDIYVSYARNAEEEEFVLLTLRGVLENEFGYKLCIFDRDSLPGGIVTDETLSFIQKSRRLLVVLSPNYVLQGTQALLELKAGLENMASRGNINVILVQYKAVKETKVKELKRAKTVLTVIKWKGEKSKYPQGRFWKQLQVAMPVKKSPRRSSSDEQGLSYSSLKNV

In test [1], [dR][dY][I2aa][dE][dL][dA]-NH2 [API-101.110] showed an IC50, IL-1-induced PGE2 synthesis, endothelial cells of 0.2 pM and a fold potency against API-101.107, IL-1-induced PGE2 synthesis, endothelial cells of 10 fold. This molecule registered an activity (FIG. 26; assay not given) in test [2] of 10 pM.

Regarding [dR][dY]X[dE][dL] (not fully specified (residue 3); printed as ry[R-I2aa]el) [TTI-101.124], in test [2], the IC50 (FIG. 26; assay not given) amounted to 2.4 µM and the efficacy (FIG. 26; assay not given) was 100%.

Turning to [dOrn][dY]X[dE][dL][dA] (not fully specified (residue 3); printed as (D-orn)y[R-I2aa]ela) [TTI-101.125], in test [2], the IC50 (FIG. 26; assay not given) was found to be 9e-05 µM and the efficacy (FIG. 26; assay not given) amounted to 100%.
